# From patent US20240165282A1, “CONFORMATIONAL CONSTRAINED SOMATOSTATIN RECEPTOR 3 PEPTIDE LIGANDS AND THEIR CONJUGATES AND USES THEREOF” (STARGET PHARMA LTD., priority 2021, published 2024)
# *1 amine or outer side, *2 acyl side, *3 side chain or, on linkers, in order; H or OH if unused. Bridges are numbered along the chain shown (N, C = ends). [ ]: non-standard residue; d: D form. The star is where a group is joined. DOTA = O=C(O)CN1CCN(CC(=O)O)CCN(CC(=O)*)CCN(CC(=O)O)CC1; N(2-mercaptoethyl)Gly = O=C(CN(CCS[*:3])[*:1])[*:2]
# How the values were obtained:
# Test in all cases: cell-based or functional assay
# TSHR(L) (human) = TSHR(L) (human) (UniProt P16473)
# EDG4 (human) = EDG4 (human) (UniProt Q9HBW0)
# (CR)R-RAMP3 (human) = (CR)R-RAMP3 (human) (UniProt P30988)
# PTGER2 (human) = PTGER2 (human) (UniProt P43116)
# BDKRB2 (human) = BDKRB2 (human) (UniProt P30411)
# DRD2L (human) = DRD2L (human) (UniProt P14416)
# HTR1A (human) = HTR1A (human) (UniProt P08908)
# FPR1 (human) = FPR1 (human) (UniProt P21462)
# HCRTR1 (human) = HCRTR1 (human) (UniProt O43613)
# GLP1R (human) = GLP1R (human) (UniProt P43220)
# VIPR1 (human) = VIPR1 (human) (UniProt P32241)
# C5aR1 (human) = C5aR1 (human) (UniProt P21730)
# CCR1 (human) = CCR1 (human) (UniProt P32246)
# HTR1F (human) = HTR1F (human) (UniProt P30939)
# FPRL1 (human) = FPRL1 (human) (UniProt P25090)
# CXCR1 (human) = CXCR1 (human) (UniProt P25024)
# GPR119 (human) = GPR119 (human) (UniProt Q8TDV5)
# ADRA1B (human) = ADRA1B (human) (UniProt P35368)
# HCRTR2 (human) = HCRTR2 (human) (UniProt O43614)
# HTR2C (human) = HTR2C (human) (UniProt P28335)
# MCHR1 (human) = MCHR1 (human) (UniProt Q99705)
# CALCR (CR) (human) = CALCR (CR) (human) (UniProt P30988)
# CHRM1 (human) = CHRM1 (human) (UniProt P11229)
# HTR1E (human) = HTR1E (human) (UniProt P28566)
# TBXA2R (human) = TBXA2R (human) (UniProt P21731)
# MC3R (human) = MC3R (human) (UniProt P41968)
# NTSR1 (human) = NTSR1 (human) (UniProt P30989)
# CCR3 (human) = CCR3 (human) (UniProt P51677)
# [1] = target: human cloned somatostatin receptor 3 (human) (UniProt P32745)
# CCR2 (human) = CCR2 (human) (UniProt P41597)
# NPBWR1 (human) = NPBWR1 (human) (UniProt P48145)
# CXCR3 (human) = CXCR3 (human) (UniProt P49682)
# HTR2A (human) = HTR2A (human) (UniProt P28223)
# HRH2 (human) = HRH2 (human) (UniProt P25021)
# GALR2 (human) = GALR2 (human) (UniProt O43603)
# EDG3 (human) = EDG3 (human) (UniProt Q99500)
# GPR120 (human) = GPR120 (human) (UniProt Q5NUL3)
# CCR5 (human) = CCR5 (human) (UniProt P51681)
# P2RY2 (human) = P2RY2 (human) (UniProt P41231)
# ADCYAP1R1 (human) = ADCYAP1R1 (human) (UniProt P41586)
# NPY2R (human) = NPY2R (human) (UniProt P49146)
# CXCR6 (human) = CXCR6 (human) (UniProt O00574)
# GPR103 (human) = GPR103 (human) (UniProt Q96P65)
# CCKAR (human) = CCKAR (human) (UniProt P32238)
# P2RY4 (human) = P2RY4 (human) (UniProt P51582)
# CRHR1 (human) = CRHR1 (human) (UniProt P34998)
# GALR1 (human) = GALR1 (human) (UniProt P47211)
# EDG5 (human) = EDG5 (human) (UniProt O95136)
# CRTH2 (human) = CRTH2 (human) (UniProt Q9Y5Y4)
# SCTR (human) = SCTR (human) (UniProt P47872)
# GPR109B (human) = GPR109B (human) (UniProt P49019)
# LHCGR (human) = LHCGR (human) (UniProt P22888)
# PRLHR (human) = PRLHR (human) (UniProt P49683)
# MC4R (human) = MC4R (human) (UniProt P32245)
# F2RL3 (human) = F2RL3 (human) (UniProt Q96RI0)
# AGTRL1 (human) = AGTRL1 (human) (UniProt P35414)
# PROKR1 (human) = PROKR1 (human) (UniProt Q8TCW9)
# FSHR (human) = FSHR (human) (UniProt P23945)
# human cloned somatostatin receptor 3 (human), sequence (P32745 whole entry): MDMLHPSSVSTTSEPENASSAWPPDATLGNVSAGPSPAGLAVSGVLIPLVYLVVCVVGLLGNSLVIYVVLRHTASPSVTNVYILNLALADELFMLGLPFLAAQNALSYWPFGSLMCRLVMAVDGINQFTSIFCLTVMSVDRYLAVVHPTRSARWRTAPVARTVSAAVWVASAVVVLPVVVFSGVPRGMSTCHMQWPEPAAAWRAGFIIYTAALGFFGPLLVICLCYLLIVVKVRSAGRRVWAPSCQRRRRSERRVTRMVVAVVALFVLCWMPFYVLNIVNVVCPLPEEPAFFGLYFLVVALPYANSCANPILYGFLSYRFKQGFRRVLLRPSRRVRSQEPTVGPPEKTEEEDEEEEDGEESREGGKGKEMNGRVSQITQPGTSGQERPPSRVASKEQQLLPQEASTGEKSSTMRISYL
# P2RY2 (human), sequence (P41231 whole entry): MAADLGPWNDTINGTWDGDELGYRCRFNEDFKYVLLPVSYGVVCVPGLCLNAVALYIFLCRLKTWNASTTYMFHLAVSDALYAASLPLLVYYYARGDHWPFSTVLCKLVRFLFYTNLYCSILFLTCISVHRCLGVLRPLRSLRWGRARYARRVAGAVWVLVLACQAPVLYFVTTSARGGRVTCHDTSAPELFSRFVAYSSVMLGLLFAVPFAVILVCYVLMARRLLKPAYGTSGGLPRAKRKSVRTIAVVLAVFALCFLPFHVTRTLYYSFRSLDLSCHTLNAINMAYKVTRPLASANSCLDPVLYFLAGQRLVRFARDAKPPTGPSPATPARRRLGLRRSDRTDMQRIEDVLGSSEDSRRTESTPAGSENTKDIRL
# EDG5 (human), sequence (O95136 whole entry): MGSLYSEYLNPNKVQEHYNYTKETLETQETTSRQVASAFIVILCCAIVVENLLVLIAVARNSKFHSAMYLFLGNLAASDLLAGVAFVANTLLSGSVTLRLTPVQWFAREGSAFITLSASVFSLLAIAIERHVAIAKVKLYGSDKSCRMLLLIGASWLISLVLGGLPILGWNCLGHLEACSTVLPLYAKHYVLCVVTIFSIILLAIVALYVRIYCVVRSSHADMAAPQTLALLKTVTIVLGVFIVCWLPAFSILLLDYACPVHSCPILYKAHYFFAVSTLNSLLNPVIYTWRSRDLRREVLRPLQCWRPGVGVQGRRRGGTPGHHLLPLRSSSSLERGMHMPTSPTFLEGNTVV
# FPRL1 (human), sequence (P25090 whole entry): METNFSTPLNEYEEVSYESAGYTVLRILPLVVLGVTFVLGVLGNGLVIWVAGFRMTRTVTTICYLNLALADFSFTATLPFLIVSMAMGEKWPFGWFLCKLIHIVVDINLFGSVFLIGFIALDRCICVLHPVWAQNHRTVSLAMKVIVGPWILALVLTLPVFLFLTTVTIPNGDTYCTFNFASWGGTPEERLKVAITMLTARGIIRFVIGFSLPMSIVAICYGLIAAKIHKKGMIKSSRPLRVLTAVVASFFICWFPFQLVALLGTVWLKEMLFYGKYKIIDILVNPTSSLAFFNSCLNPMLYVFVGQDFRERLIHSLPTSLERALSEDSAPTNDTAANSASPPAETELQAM
# PROKR1 (human), sequence (Q8TCW9 whole entry): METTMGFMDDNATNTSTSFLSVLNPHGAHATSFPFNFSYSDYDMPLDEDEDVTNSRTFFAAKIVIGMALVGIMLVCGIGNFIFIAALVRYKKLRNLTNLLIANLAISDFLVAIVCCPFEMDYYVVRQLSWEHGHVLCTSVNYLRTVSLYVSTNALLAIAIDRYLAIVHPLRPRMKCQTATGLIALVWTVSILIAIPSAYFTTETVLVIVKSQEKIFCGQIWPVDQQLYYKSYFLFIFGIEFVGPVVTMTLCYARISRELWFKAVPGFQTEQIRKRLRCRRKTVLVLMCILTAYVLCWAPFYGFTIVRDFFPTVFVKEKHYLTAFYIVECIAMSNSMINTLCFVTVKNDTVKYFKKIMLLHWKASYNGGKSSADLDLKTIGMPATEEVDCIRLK
# FPR1 (human), sequence (P21462 whole entry): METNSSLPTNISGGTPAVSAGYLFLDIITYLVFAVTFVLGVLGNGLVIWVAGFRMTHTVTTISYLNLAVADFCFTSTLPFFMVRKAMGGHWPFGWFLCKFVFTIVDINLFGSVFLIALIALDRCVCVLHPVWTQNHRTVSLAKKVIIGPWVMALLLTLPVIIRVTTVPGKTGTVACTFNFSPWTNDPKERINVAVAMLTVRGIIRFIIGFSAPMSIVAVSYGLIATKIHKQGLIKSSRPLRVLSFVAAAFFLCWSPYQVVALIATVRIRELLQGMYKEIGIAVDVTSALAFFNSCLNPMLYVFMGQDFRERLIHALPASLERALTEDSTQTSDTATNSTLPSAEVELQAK
# CCR2 (human), sequence (P41597 whole entry): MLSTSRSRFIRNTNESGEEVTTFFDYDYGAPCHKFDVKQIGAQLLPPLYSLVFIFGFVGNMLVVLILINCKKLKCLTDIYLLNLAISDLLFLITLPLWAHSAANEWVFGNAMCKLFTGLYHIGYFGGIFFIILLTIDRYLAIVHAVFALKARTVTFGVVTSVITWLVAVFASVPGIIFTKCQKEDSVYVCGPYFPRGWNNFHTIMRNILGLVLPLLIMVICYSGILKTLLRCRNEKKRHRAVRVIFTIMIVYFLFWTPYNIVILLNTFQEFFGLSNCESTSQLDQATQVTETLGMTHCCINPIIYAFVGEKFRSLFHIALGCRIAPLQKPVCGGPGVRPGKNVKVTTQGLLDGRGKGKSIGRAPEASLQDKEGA
# HTR2A (human), sequence (P28223 whole entry): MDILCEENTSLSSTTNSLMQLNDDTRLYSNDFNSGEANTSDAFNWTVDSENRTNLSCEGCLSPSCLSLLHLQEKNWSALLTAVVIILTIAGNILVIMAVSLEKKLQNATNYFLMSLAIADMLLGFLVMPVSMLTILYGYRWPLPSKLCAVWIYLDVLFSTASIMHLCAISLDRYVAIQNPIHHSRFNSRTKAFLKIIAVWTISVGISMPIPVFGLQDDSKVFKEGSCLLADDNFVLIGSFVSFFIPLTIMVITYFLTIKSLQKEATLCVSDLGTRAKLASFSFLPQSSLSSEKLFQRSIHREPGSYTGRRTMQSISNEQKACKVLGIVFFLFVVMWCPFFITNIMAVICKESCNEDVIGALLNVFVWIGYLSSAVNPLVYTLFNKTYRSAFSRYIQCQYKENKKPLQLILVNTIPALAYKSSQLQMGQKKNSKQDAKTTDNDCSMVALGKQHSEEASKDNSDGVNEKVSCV
# P2RY4 (human), sequence (P51582 whole entry): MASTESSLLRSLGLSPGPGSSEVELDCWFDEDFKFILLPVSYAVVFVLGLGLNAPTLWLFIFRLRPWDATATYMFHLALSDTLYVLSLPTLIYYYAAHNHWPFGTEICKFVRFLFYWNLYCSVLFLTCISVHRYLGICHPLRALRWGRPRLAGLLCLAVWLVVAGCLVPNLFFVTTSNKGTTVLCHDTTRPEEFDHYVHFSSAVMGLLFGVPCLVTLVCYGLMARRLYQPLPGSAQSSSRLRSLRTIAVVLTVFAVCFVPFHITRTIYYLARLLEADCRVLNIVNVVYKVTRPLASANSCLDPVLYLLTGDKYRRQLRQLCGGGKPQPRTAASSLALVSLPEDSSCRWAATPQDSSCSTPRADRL
# F2RL3 (human), sequence (Q96RI0 48-385): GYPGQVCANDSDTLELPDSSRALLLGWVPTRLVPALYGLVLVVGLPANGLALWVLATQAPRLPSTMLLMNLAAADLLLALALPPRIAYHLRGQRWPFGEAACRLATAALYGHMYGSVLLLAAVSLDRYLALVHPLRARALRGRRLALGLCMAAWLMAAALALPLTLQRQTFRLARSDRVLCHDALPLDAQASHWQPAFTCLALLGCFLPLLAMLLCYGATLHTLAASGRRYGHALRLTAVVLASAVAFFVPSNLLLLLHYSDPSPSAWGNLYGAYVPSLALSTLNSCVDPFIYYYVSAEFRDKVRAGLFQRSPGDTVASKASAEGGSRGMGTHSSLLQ
# HRH2 (human), sequence (P25021 whole entry): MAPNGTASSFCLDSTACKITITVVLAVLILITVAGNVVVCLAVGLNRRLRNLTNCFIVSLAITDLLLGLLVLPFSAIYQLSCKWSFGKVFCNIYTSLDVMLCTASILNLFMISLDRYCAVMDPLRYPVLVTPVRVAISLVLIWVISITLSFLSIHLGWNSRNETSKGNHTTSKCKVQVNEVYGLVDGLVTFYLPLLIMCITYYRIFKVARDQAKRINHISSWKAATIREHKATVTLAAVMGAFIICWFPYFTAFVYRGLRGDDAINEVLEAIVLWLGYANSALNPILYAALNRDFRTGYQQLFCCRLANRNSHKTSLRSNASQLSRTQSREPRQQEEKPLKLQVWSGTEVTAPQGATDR
# CCR3 (human), sequence (P51677 whole entry): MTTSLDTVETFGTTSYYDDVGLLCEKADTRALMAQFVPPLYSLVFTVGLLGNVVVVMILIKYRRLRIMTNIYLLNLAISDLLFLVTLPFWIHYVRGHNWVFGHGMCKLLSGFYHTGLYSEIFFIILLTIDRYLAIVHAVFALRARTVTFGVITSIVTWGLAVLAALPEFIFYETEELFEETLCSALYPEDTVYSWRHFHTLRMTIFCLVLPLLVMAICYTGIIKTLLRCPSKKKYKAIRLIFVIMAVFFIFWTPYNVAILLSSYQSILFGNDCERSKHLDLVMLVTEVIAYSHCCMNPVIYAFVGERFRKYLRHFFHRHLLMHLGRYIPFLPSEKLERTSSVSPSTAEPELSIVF
# TBXA2R (human), sequence (P21731 whole entry): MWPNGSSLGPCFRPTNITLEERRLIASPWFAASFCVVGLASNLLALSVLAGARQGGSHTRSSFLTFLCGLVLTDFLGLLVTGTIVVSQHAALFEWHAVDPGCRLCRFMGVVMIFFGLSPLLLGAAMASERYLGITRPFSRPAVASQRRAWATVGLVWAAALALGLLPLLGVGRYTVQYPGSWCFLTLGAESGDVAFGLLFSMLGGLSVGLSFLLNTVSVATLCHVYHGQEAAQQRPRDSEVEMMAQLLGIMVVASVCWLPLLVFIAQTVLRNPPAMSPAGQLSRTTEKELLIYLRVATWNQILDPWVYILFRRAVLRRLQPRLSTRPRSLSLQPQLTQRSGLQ
binder,measurement,setting,value
{DOTA}-[dF]RCF[dW]KTF[N(2-mercaptoethyl)Gly]-NH2 (disulfide 3-9; also: Ga complex of DOTA) [SEQ ID NO: 4],"% Activity (agonist mode, 1 µM)",TSHR(L) (human),-1%
same,"% Activity (agonist mode, 1 µM)",EDG4 (human),6%
same,"% Activity (agonist mode, 1 µM)",(CR)R-RAMP3 (human),-13%
same,"% Activity (agonist mode, 1 µM)",PTGER2 (human),1%
same,"% Activity (agonist mode, 1 µM)",BDKRB2 (human),0%
same,"% Activity (agonist mode, 1 µM)",DRD2L (human),-1%
same,"% Activity (agonist mode, 1 µM)",HTR1A (human),0%
same,"% Activity (agonist mode, 1 µM)",FPR1 (human),-1%
same,"% Activity (agonist mode, 1 µM)",HCRTR1 (human),0%
same,"% Activity (agonist mode, 1 µM)",GLP1R (human),0%
same,"% Activity (agonist mode, 1 µM)",VIPR1 (human),0%
same,"% Activity (agonist mode, 1 µM)",C5aR1 (human),0%
same,"% Activity (agonist mode, 1 µM)",CCR1 (human),3%
same,"% Activity (agonist mode, 1 µM)",HTR1F (human),0%
same,"% Activity (agonist mode, 1 µM)",FPRL1 (human),0%
same,"% Activity (agonist mode, 1 µM)",CXCR1 (human),0%
same,"% Activity (agonist mode, 1 µM)",GPR119 (human),19%
same,"% Activity (agonist mode, 1 µM)",ADRA1B (human),-2%
same,"% Activity (agonist mode, 1 µM)",HCRTR2 (human),0%
same,"% Activity (agonist mode, 1 µM)",HTR2C (human),0%
same,"% Activity (agonist mode, 1 µM)",MCHR1 (human),-1%
same,"% Activity (agonist mode, 1 µM)",CALCR (CR) (human),0%
same,"% Activity (agonist mode, 1 µM)",CHRM1 (human),-1%
same,"% Activity (agonist mode, 1 µM)",HTR1E (human),1%
same,"% Activity (agonist mode, 1 µM)",TBXA2R (human),1%
same,"% Activity (agonist mode, 1 µM)",MC3R (human),0%
same,"% Activity (agonist mode, 1 µM)",NTSR1 (human),3%
same,"% Activity (agonist mode, 1 µM)",CCR3 (human),2%
same,"% Activity (agonist mode, 1 µM)",[1],200%
same,Cellular Internalization EC50 (β-Arrestin Luminescence Assay),[1],16 nM
same,Efficacy - maximal response,[1],75200 RLU
same,intensity of beta-arrestin response against SRIF-14,[1],2 fold
same,"% Activity (agonist mode, 1 µM)",CCR2 (human),1%
same,"% Activity (agonist mode, 1 µM)",NPBWR1 (human),2%
same,"% Activity (agonist mode, 1 µM)",CXCR3 (human),-1%
same,"% Activity (agonist mode, 1 µM)",HTR2A (human),-1%
same,"% Activity (agonist mode, 1 µM)",HRH2 (human),-4%
same,"% Activity (agonist mode, 1 µM)",GALR2 (human),-4%
same,"% Activity (agonist mode, 1 µM)",EDG3 (human),-1%
same,"% Activity (agonist mode, 1 µM)",GPR120 (human),-4%
same,"% Activity (agonist mode, 1 µM)",CCR5 (human),1%
same,"% Activity (agonist mode, 1 µM)",P2RY2 (human),2%
same,"% Activity (agonist mode, 1 µM)",ADCYAP1R1 (human),0%
same,"% Activity (agonist mode, 1 µM)",NPY2R (human),1%
same,"% Activity (agonist mode, 1 µM)",CXCR6 (human),1%
same,"% Activity (agonist mode, 1 µM)",GPR103 (human),4%
same,"% Activity (agonist mode, 1 µM)",CCKAR (human),0%
same,"% Activity (agonist mode, 1 µM)",P2RY4 (human),1%
same,"% Activity (agonist mode, 1 µM)",CRHR1 (human),0%
same,"% Activity (agonist mode, 1 µM)",GALR1 (human),2%
same,"% Activity (agonist mode, 1 µM)",EDG5 (human),-2%
same,"% Activity (agonist mode, 1 µM)",CRTH2 (human),-1%
same,"% Activity (agonist mode, 1 µM)",SCTR (human),0%
same,"% Activity (agonist mode, 1 µM)",GPR109B (human),-3%
same,"% Activity (agonist mode, 1 µM)",LHCGR (human),1%
same,"% Activity (agonist mode, 1 µM)",PRLHR (human),1%
same,"% Activity (agonist mode, 1 µM)",MC4R (human),0%
same,"% Activity (agonist mode, 1 µM)",F2RL3 (human),2%
same,"% Activity (agonist mode, 1 µM)",AGTRL1 (human),-1%
same,"% Activity (agonist mode, 1 µM)",PROKR1 (human),0%
same,"% Activity (agonist mode, 1 µM)",FSHR (human),3%
